Measurements reported in the nanobody polyreactivity screen of Harvey et al. (2022).

Assay: yeast display, Sf9 membrane polyspecificity reagent, FACS + sequencing; frameworks hold sequencing errors
Method in brief: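 Galactose induction of a Saccharomyces cerevisiae BJ5465 synthetic nanobody display library ran 36–48 hours. The cells were then stained for 1 hour at 4 °C with 10% biotinylated, detergent-solubilized Sf9 membrane reagent, pulled down on streptavidin microbeads and FACS-sorted into low and high (top ~1%) gates on expression and reagent-binding fluorescence. Labels for polyreactivity follow the gate of origin.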

Sequence | polyreactivity (PSR sort gate)
QVQLVESWGALVQAGGSLRLSCAASGSTFGYYAMGWYRQAPGKDRELVAAITRSGGSTSYADSVTGRFTISRDNAKNTVYLQMNSLKPEATAVYYCAARFYRPYYARQGYNYWGQGTKVTVSS | high polyreactivity
QVQLVESGGCLVQEGGSLRLSCAASGSIFHDYIMGWYRQAPGKEMELVAAMSSGGSTYYADSVKGRFTISRDNAKNTVYLQMNSLKPEDTEVYYCAAKSRSQVYPHYYWGQGTQVTVSS | low polyreactivity
QVQRVESGGGLVQAGGSLRLSCAASGNIFGYAMGWYRQAPGKERELVAAISRGGGTYYADSVKGRFTISRDNAKNTVYLQMNSLKPEDTADYYCAARLVKGYSRMNYWGQGTQVTVSS | high polyreactivity
QVQLQESGGGLLQAGGSLRLSCAASGNIFLSIFMGWYRQAPGKEREFVAGIGSGTNTNYADSVKGRFTISRDNAKNTVYLQMNSLKPEDTAGYYSAAGRFGLYYHGYWGLGTQVTVSS | high polyreactivity
QVQLVESGGGLVQAGGSLRLSCAASGRTFRYYAMGWYRQAPGKERELVAAISSRGNTYYADSVKGRFTISRDNAKNTVYLQMNSLKPEDTAVYYCAAYVYRVQYDFDYWGQGTQVTVSS | high polyreactivity
QVQLVESGGGLVQAGGSLRLSCAASGSTFSYYAMGWYRQAPGKERELVAAIRKSGGSTYYADSVKGRFTISRDNAKNTVYLQMNSLKPEDTAVYSCAAVFSYYGWYSRYDYWGQGTQVTVSS | low polyreactivity
QVQLVESGGGLVQAGGSLRLSCAASGGTFGTNAMGWYRQAPGKEREFVAAISRSGGSTNYADSVKGRFTISRDNAKNTVYLEMNILKPEDTAVYFCATRVIVVPRGGGYYSWGQGTQVTVSS | high polyreactivity
QVQLVESGGGLVQAGGSLRLSCAASGSIFAYNGMGGYRQPPGKERELVAAISRRGGSTTYADSVKGRFTISRDNAKNTVYLQMNSLKPEDTAVYYCNTGAWSVRKMYYWGQGTQVTVSS | high polyreactivity
QVQLVESGGGLVQAGGSLRLSCAASGRIFWEYAMGGYRQAPGKERELVAAITWRVGSTYYADSVKGRFTISRDYAKNTVYLQMNSLKPEDTAVFYCAAARYLSIYNYWGHGTQVTVSS | low polyreactivity
QVQIVESGRGLVQAGGSLSLSCAASGNIFYRYTMGWYRQAPGKERELVAAISRTGGSTYYADSVKGRFTISRDNAKNTVYLQMNSLKPEDTAVYYCAVRYMDPPYFYSKRFGYWGQGTQVTVSS | high polyreactivity
QVQLVESGGGLVQAGGSLRLSCAASGRTLGVNAMGWYRQAPGKERELVAAISTRGTTTNYADSVKGRFTISRDNAKNTVYLQMNSLKPEDTAVYYCATRTYRTYPRYDYWGQGTQVTVSS | high polyreactivity
QVQLVESGGGLVQAGCSLRLSPASGSTLAGNTMGWYRQAPGKERELVAAINDSGGSTYYADSVKGRFTISRDNAKNSVNLQMNSLKPEDTGVYYCNADGSAYIEDGYDYWGQGTQVTVSS | low polyreactivity
QVQLVESGGGLVQAGGSLRLSCAASGLIFYDNMVWYRQGPGTETELVAAISSSGGSTSYADSVKGRFTISRDNAKNTVYLQMNILKPEDTAVYYCAADSYPAYLGFVCFDYWGQGTEVTVSS | low polyreactivity
QVQLVESGGGLVQAGGSLRLSCAASGRTFAYYAMGWYRQAPGKERELVAAIDSSGGDTYYADSVKGRFTISRDNAKNTVYLQMNSLKPEDTAVYYCAADYYWEMDSWGQGTQVTVSS | low polyreactivity
QVQLVESGGGLVQAGGSLRLSCAASGSIFTYYAMGWYRQAPGKERELVAAISGSGGRTYYADSVKGRFTISRDNAKNPVYLQMNSLKPEDTAVYYCAVRSYRRFTHLYYRYDYWGQGTQVTVSS | high polyreactivity
QVQLVESGGGLVQAGGSLRLSCAASGSIFGYYTMGWYRQAPGKERELVARITRGGSTYYADSVKGRFTISRDNAKNTVYLQMNSLKPEDTAVYYCAARRVNAGWTYGLRGNYWGQGTQVTVSS | low polyreactivity
QVQLVESGGGLVQAGGSLRLSCAASGRTFFQYAMGWYRQAPGKERELVAAIRWSDSTYYADSVKGRFTISRDNAKNTVYLQMNSLKPEDTAVYYCAAPRVSQYSTKKYDYWGQGTQVTVSS | low polyreactivity
QVQLVESGGGLVQAGGSLRLSCAASGATFSYYAMGWYRQAPGKERELVAAISYSGGSTYYADSVKGRFTISRDNAKNTVYLQMNSLKPEDTAVYYCNARDPYYGDPSSLPDTRSRSDYWGQGTQVTVSS | low polyreactivity
QVQLVESGGGLVQAGGSLRLSCAASGIIFQYYAMGWYRPAPGKEREWVAAITSSGDRTYYADSVKGRFTISRDNAKNNVILQMNSLNPEDTAVYYCNAVYYLDYHYGYEFGYWGQGTQVTVSS | high polyreactivity
QVQLVESGGGLVQAGGSLRLSCAASGSNFRSNAMGWYRQAPGKERELVAAISRRGGSTYYADSVKGRFRISRDIAKNTVYLQMNSLKPEDTAVYYCAAPTIVSGHDSWGQGTQVTVSS | high polyreactivity
QVQLVESGGGLVQAGGSLRLSCAASGRIFSDYAMGWYRQAPGKERELVAAISRSGTRTYYADSVKGRFTISRDNAKNTVYLQMNSLKPEDTAVYSCAAKTPYGRAGQEEDYCGQGTQVTVSS | high polyreactivity
QVQLVESGGGLVQAGGSLRLSCAASGSIFDTNAMGWYRQAPGKERELVAAINDSGGSTDYADSVKGRFTISRDNAKNTVYLQMNSLKPEDTAVYYCAADIYYTGYNGPEYYWVGMDYWGQGTQVTVSS | low polyreactivity

Sequence | polyreactivity (PSR sort gate)
QVQLQESGGGLVQAGGSLRLSCAASGSISADGAMGWYRQAPGKEREFAASVNWGTNTNYADSVKGRFTISRDNAKNTLYLQMNRLKPEDTAVYYCAVLPDWETRHDYWGHGTQVTVSS | low polyreactivity
QVQLVESGGGLVQAGGSLRLSCAASGGTFVVYAMGWYRQAPGKEREFVAGISWGGGRTYYADSVKGRFTISRDNAKNPVYLQMNSLKPEDTAVYYCAVRREIQYYRKFDYWGQGTQVTVSS | low polyreactivity
QVQLVESGGGLVQAGGSLRLSCAASGSTFTWYAMGWYRQAPGKERELVADISYGGGSTYYADSVKGRFTISRDNAKNTVYLQMNSLKPEDTAVYYCAAESIPYYSYDYWGQGTQVTVSS | low polyreactivity
QVQLVESGGGLVQAGGSLRLSCAASGSIFRVNAMGWYRQAPGKERELVAAITSGGTTTYYADSVKGRFTISLDNAKNTVYLQMNSLKPEDTAVYYCSKYPYPIYHTDGDDWGQGTQVTVSS | low polyreactivity
QVQLVESGGGLVQAGGSLRLSCAASGTIFSDYAMGWYRQAPGKERELVATITSRGGSTHYADSVKGRFTISRDNAKNTVYLQMNSLKPEDTAVYYCIVRRLYVYTITSGDVDYDYWGQGTQVTVSS | low polyreactivity
QVQLVESGGGLVQAGGSLRLICAASGLTFKRYAMGWYRQAPGKEREFVAAISAGGASTHYADSVKGRFTISRDNAKNTVYLQMNSLKPEDTAVYYCATDYRSFRPSFGYWGQGTQVTVSS | low polyreactivity
QHQLVESGGGLVQAGGSLRLSCAASGRTSLDYAMGWYRQAPGKERELVSAIRSGGITNYADSVKGRFTISRDNAKNTVYLQLNSLKPEDTAVYYCAARVHRAYSTGSIVYYWGQGTQVNVSS | high polyreactivity
QVQLVESGGGLVQAGGSLRLSCAASGSIFDDYAMGCYIHAPGKERELVAAITWNGGSTYADSVKGRFTISRDNAKNTVYLQMNSLKPEDTAVYYCAADYFVYWYYGYGYWGQGTQVTVSS | low polyreactivity
QVQLVESGGGLVQAGGSLRLSCAASGIIFYLNAMGWYRLAPGKERELVAAISSSDGTTYYADSVKGRFTISRDNAKNTVYLQMNSLKPEDTAGYYCAAGQDWGYLDYDWVSYLYDYWGQGTQVTVSS | low polyreactivity
QVQLVESGGGLVQAGGSLRLSCAASGRIFWINAMGWYRQAPGKERELVATISSGSTSYADSVKGRFTISRDNAKNTVYLQMNSLKPEDTAVYYCAADFVFRWYSYTGRWYSSYDYWGQGTQVTVSS | low polyreactivity
QVQLVESGGGLVQAGGSLRLICAASGRILSYYAMGWYRQAPGKERELVATINSGGSTNYADSVKGRFTISRDNAKNTVYLEMNSLKPEDTAVYYCAASPVWWYEYWGQGTQVNVSS | low polyreactivity
QVQLVESGGGLVQAGGSLRLSCAASGSTFRDNSMGWYRQAPGKERELVASITKRGTSTYYADSVKGRFTISRDNAKNNVYLHMNSLKPEETSVYYCAVRRYGKTAGYDYWGQGTQVTVSS | low polyreactivity
QVQLVESGGGLVQAGGSLRLSCAASGRIFGTNAMGWYRQAPGKERELVADITSGGSTNYADSVKGRFTISRDNAKNTVYLQMNSLKPEDTAVYYCAADVIADLRWYRDEYWGQGTQLTVSS | low polyreactivity
QVQLVESGGGLVQAGGSLRLSCAASGRTFQYYAMGWNRQAPGKERELVAAISQDGGSTYYADSVKGRFTISRDNAKHSVYLQMNSLKPEDTAVYYCDAEVWRSYGYWGQGTQVTVSS | low polyreactivity
QVQLVESGGGLVQAGGSLRLSCAASGLTFYYYAMGWYSQPPGKERELVAAISIGGSTDYADSVKGRFTISRDNAKNTVYLQMNSLKPEDTAVYYCNVDDNSEYEYWGQGTQVTVSS | low polyreactivity
QVQLVESGGGLVQAGGSLRLSCAASGFIIPGYAMGWYRQAPGKERELVAAISSGTSTYYEDSVKGRFTISRDNAKNTVYLQMNSLKPEATAVYDCAAETWYRFGYWGQGTQVTVSS | low polyreactivity
QVQLVESVGGLVQAGGSLRISCAASGFIFEVYAMGWYRQAPGKERELIAAIRWSGTSTYYAYSVKGRFTISRDNAKNTFYLQMNSLKPEDTAVYYCAADSWDWHIGGEDYWGQGTQVTVSS | low polyreactivity
QVQHVESGGCLVQAGGSLRLSCAASGITFEWYAMGWYRQAPGKESELVADITSGDSTNYADSVKGRFTISRDNAQNTVYLQMNSLKPEDTAVYYWAATFIGQFFSWYYYWGQGTQVTVSS | low polyreactivity
QVQLVESGGGLVQEGGSLRLSCAACGFTFTTNAMGWYRQAPGKERELVAGITFIGGSTYYADSVKGRFTISRDNAKNTVYLQMNNLKPEDTAVYYCAAEWVLVYLQYTYEDYDYWGQGTQVTVSS | low polyreactivity
QVQLVESGGGLVQAGGSLRLSCAASGLTFSSYAMGWYRQAPGKERELVAVISRTGGSTYYADSVKGRFTISRDNAKNTVYLQMNSLKPEDTAVYYCAARSYNGWRYDSWGQGTQVTVSS | high polyreactivity
QVHLVESGGGLVQAGGSLRLSCAASGFTLANYAMGWYRQPPGKERELVAAIDYSGGGTYYADSVKGRFTISRDNAKNTVYLQMNSLKPEDTAVYYCAARRWSYYSAKYDYWGQGTQVTVSS | low polyreactivity
